Results taken from paper PMC6599559 (Journal of molecular biology, 2019).

Target: eukaryotic elongation factor 2 (eEF-2) from yeast (yeast (commercial yeast cake), UniProt P32324 1-842)
Assay: ITC

eukaryotic elongation factor 2 (eEF-2) from yeast, sequence (P32324 whole entry): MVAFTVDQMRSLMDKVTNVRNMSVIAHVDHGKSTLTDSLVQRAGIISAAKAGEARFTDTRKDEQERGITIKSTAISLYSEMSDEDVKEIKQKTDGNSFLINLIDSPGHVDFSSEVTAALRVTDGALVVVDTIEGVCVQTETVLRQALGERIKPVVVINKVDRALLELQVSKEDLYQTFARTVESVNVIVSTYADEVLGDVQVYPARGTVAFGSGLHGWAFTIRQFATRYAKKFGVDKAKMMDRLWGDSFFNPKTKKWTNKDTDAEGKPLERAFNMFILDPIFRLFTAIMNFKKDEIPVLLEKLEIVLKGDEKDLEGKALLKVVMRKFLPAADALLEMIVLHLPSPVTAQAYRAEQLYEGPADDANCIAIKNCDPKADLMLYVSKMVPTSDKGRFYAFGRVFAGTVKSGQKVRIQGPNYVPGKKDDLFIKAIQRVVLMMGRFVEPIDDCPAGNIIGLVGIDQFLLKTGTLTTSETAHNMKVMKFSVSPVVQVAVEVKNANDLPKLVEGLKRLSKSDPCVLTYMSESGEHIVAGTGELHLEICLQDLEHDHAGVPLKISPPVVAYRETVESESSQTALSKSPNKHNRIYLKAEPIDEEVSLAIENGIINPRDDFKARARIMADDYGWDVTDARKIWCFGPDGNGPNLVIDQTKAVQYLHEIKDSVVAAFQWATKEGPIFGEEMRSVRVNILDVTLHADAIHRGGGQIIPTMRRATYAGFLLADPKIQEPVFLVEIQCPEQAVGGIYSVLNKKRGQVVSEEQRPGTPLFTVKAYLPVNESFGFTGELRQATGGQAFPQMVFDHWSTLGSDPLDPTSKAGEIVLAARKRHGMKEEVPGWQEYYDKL

Kd [µM] | Binder
4.2 to 8.9 | eEF-2K_(562–725), C-terminal fragment of human eukaryotic elongation factor 2 kinase (residues G562-E725) (domain or fragment) SHMGELEAIVGLGLMYSQLPHHILADVSLKETEENKTKGFDYLLKAAEAGDRQSMILVARAFDSGQNLSPDRCQDWLEALHWYNTALEMTDCDEGGEYDGMQDEPRYMMLAREAEMLFTGGYGLEKDPQRSGDLYTQAAEAAMEAMKGRLANQYYQKAEEAWAQMEE
15.4 to 19 | eEF-2K_(592–725), C-terminal fragment of human eukaryotic elongation factor 2 kinase (residues E592-E725) (domain or fragment, UniProt O00418 592-725, looked up) ENKTKGFDYLLKAAEAGDRQSMILVARAFDSGQNLSPDRCQDWLEALHWYNTALEMTDCDEGGEYDGMQDEPRYMMLAREAEMLFTGGYGLEKDPQRSGDLYTQAAEAAMEAMKGRLANQYYQKAEEAWAQMEE
